Test results taken from patent US20140038267A1 (ALLELE BIOTECHNOLOGY AND PHARMACEUTICALS, published 2014).

Target: the molecule itself
Assay: oligomeric state by size exclusion chromatography (self-association)
Source text: FIG. 1. Size exclusion chromatography of LanYFP (tetramer), dLanYFP (dimer), and mNeonGreen (monomer). The exemplary proteins were detected with 480 nm excitation and 530 nm emission, compared to mCherry (monomer) detected with 540 nm excitation and 620 nm emission. Each exemplary fluorescent protein was run simultaneously with mCherry as a size standard with detection at both wavelengths; mCherry consistently eluted with the same peak shape and retention time. Curves are normalized to peak fluorescence.
Purified and dialyzed fluorescent protein samples were diluted into 50 mM Tris-HCl pH 7.5, 100 mM NaCl and filtered through 0.2 μm filters immediately prior to injection into a Shimadzu Nexera UHPLC equipped with a Waters BEH200 1.7 μm 4.6×150 mm size exclusion column and 4.6×30 mm guard column. Samples were run in the same buffer at a flow rate of 0.3 ml per minute for a total run time of 20 minutes. Fluorescence of the eluted protein was detected with an RF-20Axs fluorescence detector (Shimadzu) with 480 nm and 540 nm excitation and 530 nm and 620 nm emission wavelengths. Each LanYFP or variant sample was co-injected with mCherry, which had been purified under identical conditions and which served as a monomeric size standard.

B1: monomeric NeonGreen (mNeonGreen) (other)
chain: MVSKGEEDNMASLPATHELHIFGSINGVDFDMVGQGTGNPNDGYEELNLKSTKGDLQFSPWILVPHIGYGFHQYLPYPDGMSPFQAAMVDGSGYQVHRTMQFEDGASLTVNYRYTYEGSHIKGEAQVKGTGFPADGPVMTNSLTAADWCRSKKTYPNDKTIISTFKWSYTTGNGKRYRSTARTTYTFAKPMAANYLKNQPMYVFRKTELKHSKTELNFKEWQKAFTDVMGMDELYK
notes: not shown: N-terminal 6xHis tag and linker encoded by vector pNCS
binding result: no binding
